Blank lines part the entries; values can stand above or below the molecule they belong to.
What was measured:
[1] = molecular target: human CD28, full-length, expressed on Expi293 cells (human) (UniProt P10747); assay: flow cytometry, transfected cells
human PD-L1 (human) = human PD-L1 (human) (UniProt Q9NZQ7); assay: flow cytometry, transfected cells
[2] = molecular target: human PD-L1, full-length, expressed on Expi293 cells (human) (UniProt Q9NZQ7); assay: flow cytometry, transfected cells
human CD28 (human) = human CD28 (human) (UniProt P10747); assay: flow cytometry, transfected cells
[3] = molecular target: human CD28, full length, expressed on transfected Expi293 cells (human) (UniProt P10747); assay: flow cytometry, Expi293 cells transfected with human CD28

- MFI [1]: 6340 MFI
Molecule: stacked IgV-Fc fusion: domain 1 NKp30 WT, domain 2 ICOSL WT

- MFI (human PD-L1 (human)): 3000 MFI
Molecule: stacked IgV-Fc: Domain 1 ICOSL WT / Domain 2 CD80 WT (Fc fusion)

- MFI [1]: 1230 MFI
- MFI [2]: 2660 MFI
Molecule: stacked IgV-Fc fusion: domain 1 CD80 WT, domain 2 ICOSL WT

- MFI (human PD-L1 (human)): 1230 MFI
Molecule: stacked IgV-Fc: Domain 1 CD80 WT / Domain 2 ICOSL WT (Fc fusion)

- parental ratio (human CD28 (human)): 0.49
Molecule: variant ICOSL ECD-Fc T43A, N52H, N57Y, L74Q, D89G, V110D, F172S (Fc fusion)

- MFI [1]: 7920 MFI
Molecule: stacked IgV-Fc fusion: domain 1 ICOSL WT, domain 2 NKp30 WT

- MFI ratio to WT CD80 (parental ratio) [1]: 0.1
Molecule: CD80 K36G/K37Q/M38I/L40M/F59L/E81V/L85R/K89N/A91T/F92P/K93V/R94L/E99G/T130A/N149S ECD-Fc (Fc fusion)

- MFI ratio to parental (WT ICOSL) [3]: 0.89
B1: ICOSL F120S/Y152H/N201S variant ECD-Fc fusion (Fc fusion)
chain: DTQEKEVRAMVGSDVELSCACPEGSRFDLNDVYVYWQTSESKTVVTYHIPQNSSLENVDSRYRNRALMSPAGMLRGDFSLRLFNVTPQDEQKFHCLVLSQSLGFQEVLSVEVTLHVAANSSVPVVSAPHSPSQDELTFTCTSINGYPRPNVHWINKTDNSLLDQALQNDTVFLNMRGLYDVVSVLRIARTPSVNIGCCIESVLLQQNLTVGSQTGNDIGERDKITENPVSTGEKNAATAAAEPKSSDKTHTCPPCPAPELLGGPSVFLFPPKPKDTLMISRTPEVTCVVVDVSHEDPEVKFNWYVDGVEVHNAKTKPCEEQYGSTYRCVSVLTVLHQDWLNGKEYKCKVSNKALPAPIEKTISKAKGQPREPQVYTLPPSREEMTKNQVSLTCLVKGFYPSDIAVEWESNGQPENNYKTTPPVLDSDGSFFLYSKLTVDKSRWQQGNVFSCSVMHEALHNHYTQKSLSLSPGK
